Measurements reported in patent EP1255844B1 (MILLENNIUM PHARMACEUTICALS, INC., dated 2007).
Several values for one entry are separate records, joined by “and”; a condition that tells them apart may be missing. Equal values may be shown once.

Legend:
[1] = molecular target: T1, human CC-chemokine receptor 2 (CCR2) as naturally expressed on THP-1 cells, THP-1 cell membranes, fresh human … (human, UniProt P41597 1-374); experiment: competition with 0.1 nM [125I]MCP-1 on THP-1 cell membranes, filtration and scintillation counting
T1 construct: whole, on cells; In one assay membranes of THP-1 cells were used instead of whole cells; also called CKR-2; MCP-1RA
T1 sequence (P41597 whole entry): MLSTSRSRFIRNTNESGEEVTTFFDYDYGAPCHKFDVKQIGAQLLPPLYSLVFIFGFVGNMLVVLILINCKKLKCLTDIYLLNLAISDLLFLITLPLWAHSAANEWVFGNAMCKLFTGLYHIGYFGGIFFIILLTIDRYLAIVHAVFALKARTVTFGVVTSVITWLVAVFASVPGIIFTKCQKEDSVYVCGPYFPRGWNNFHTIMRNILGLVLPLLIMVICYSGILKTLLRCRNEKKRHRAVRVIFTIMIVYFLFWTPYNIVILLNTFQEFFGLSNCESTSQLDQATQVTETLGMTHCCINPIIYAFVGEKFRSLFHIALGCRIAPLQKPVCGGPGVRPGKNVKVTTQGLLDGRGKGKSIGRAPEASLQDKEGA

[2] = molecular target: T1, human CC-chemokine receptor 2 (CCR2) as …; experiment: competition with 0.1 nM [125I]MCP-1 on fresh human PBMC, filtration and scintillation counting

IC50 [1]: ~0.004 µg/mL and ~0.02 nM
IC50 [2]: 0.04 µg/mL and ~0.2 nM
B1: murine monoclonal antibody LS132.1D9 (1D9) (antibody, V domains shown)
VH: EVQLVESGGGLVQPKGSLKLSCAASGFSFNAYAMNWVRQAPGKGLEWVARIRTKNNNYATYYADSVKDRYTISRDDSESMLFLQMNNLKTEDTAMYYCVTFYGNGVWGTGTTVTVSS
VL: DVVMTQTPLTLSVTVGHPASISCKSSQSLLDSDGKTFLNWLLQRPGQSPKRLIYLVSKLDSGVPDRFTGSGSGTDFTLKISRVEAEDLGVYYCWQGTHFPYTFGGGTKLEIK
notes: Whole mouse monoclonal antibody from a hybridoma (supernatant or antibody); Kappa light chain; The controls are called isotype-matched and murine IgG2a, which implies IgG2a; also called mAb 1D9; mus-1D9
